The source of these data is article doi:10.1101/767376, “Strategies to improve scFvs as crystallization chaperones suggested by analysis of a complex with the human PHD-bromodomain SP140” (bioRxiv, 2019).

The target of the assay is T1, SP140 PHD-bromodomain (construct SP140A-c055) (Homo sapiens, UniProt Q13342).
T1 construct: SP140, human, nuclear leukocyte-specific protein, amino acids 688-862 (PHD and bromodomain); Biotinylated recombinant SP140 was the target in the phage selection; Details are in supplementary methods S1; source: recombinant, purified
Put plainly: SPR; format and conditions in Supplementary Method S3 and Figure S1 (not shown).

T1 sequence (Q13342 688-862): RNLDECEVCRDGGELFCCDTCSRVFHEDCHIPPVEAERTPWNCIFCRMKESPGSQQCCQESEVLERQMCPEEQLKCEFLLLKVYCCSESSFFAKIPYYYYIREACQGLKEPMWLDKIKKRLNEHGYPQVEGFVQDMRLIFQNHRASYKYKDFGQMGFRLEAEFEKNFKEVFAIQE

B1: G-SP140-8 scFv (construct YYSP140A-c009) (scFv, V domains shown)
VH: EVQLLESGGGLVQPGGSLRLSCAASGFTFYGSGMGWVRQAPGKGLEWVSSIYSGSGSTYYADSVKGRFTISRDNSKNTLYLQMNSLRAEDTAVYYCARTSIYYYYMDYWGQGTLVTVSS
VL: DIQMTQSPSSLSASVGDRVTITCRASQSISSYLNWYQQKPGKAPKLLIYAASSLQSGVPSRFSGSGSGTDFTLTISSLQPEDFATYYCQQSSSLFTFGQGTKLEIK
notes: scFv (VH and VL joined by a linker) selected by phage display from the human synthetic library SciLifeLib; see Supplementary Method S3; not shown: MBP, N-terminal, cleaved; His6, N-terminal, cleaved
For the molecule B1, the Kd (in general, a measure of binding affinity in units of concentration) is about 6 nM.
